Results from the supplement of paper PMC9170038.

Test system: MS2 coat protein
Experiment: apparent KD of MS2 coat protein; designed switch direction (-1 OFF switch, 1 ON switch): -1; higher = weaker reporter binding
Summary of the method: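 Normalised cluster fluorescence was curve-fitted, and each design's median over clusters is its apparent KD. Before this, SNAP-549-labelled MS2 coat protein was titrated from 0.7 or 1.5 nM, doubling to 3 µM, over RNA switches transcribed on Illumina chips by stalled E. coli RNA polymerase. Titrations had no input, 200 uM small-molecule ligand, or an oligonucleotide input, and steps lasted 0.8–1.5 h (lowest) to 10–20 min (highest).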

[1] = Eterna round: R95, input ligand: FMN 200 uM
[2] = Eterna round: R95, input ligand: microRNA oligo, concentration not stated
[3] = Eterna round: R95, input ligand: none
[4] = input ligand: microRNA oligo, concentration not stated

Row | Sequence | apparent KD of MS2 coat protein (input ligand: FMN 200 uM) | apparent KD of MS2 coat protein (input ligand: none) | apparent KD of MS2 coat protein [1] | apparent KD of MS2 coat protein [2] | apparent KD of MS2 coat protein [3] | apparent KD of MS2 coat protein [4]
1 | GCUUAUAGAGGAUAUACAGAUUAUUACAUGAGGAUCACCCAUGUUCUUCAAUGUAUAUAUGUAGAAGGCUAAGGAG [Mat - Exclusion 5 - JL Mod - D11] (Eterna round: R97, puzzle: Exclusion 5) | 0.175 µM | 0.0632 µM | – | – | – | –
2 | GAUGGUCGAGGAUAUGCACCAGGGUCGACCUACUAGCGAAGACAUGAGGAUCACCCAUGUAGAAGGUGGCGGUU [Eternabot (L2) Solution 75] (Eterna round: R97, puzzle: Exclusion 2) | 0.0739 µM | 0.0824 µM | – | – | – | –
3 | UAUUAGCAAGCAAAUGGGUACAUGAGGAUCACCCAUGUGCUCGUCUUAUAAGGUACUGUGACGACAGUCACGGUACC [mod--Eli4] (Eterna round: R97, puzzle: Sensor, turn-off variant 1) | 0.0245 µM | 0.0253 µM | – | – | – | –
4 | GAUUAUGCGAGCUUUAGGGACAUGAGGAUCACCCAUGUUCGUCUUAUUGGUCUAGAUACACUAACAUACCUAAAUCU [JMF 12] (puzzle: Sensor v3, turn-off variant 1) | – | – | 0.0152 µM | 0.0214 µM | 0.0174 µM | –
5 | GUAACAACUAGAGGAUAUCAGCACGUGUUGUGCUGAGAAGGCUAGAGUUACAUGAGGAUCACCCAUGUCUAGAGAUCAUUAAUU [ENG1/13-A4] (Eterna round: R96, puzzle: Exclusion NG 1) | 0.12 µM | 0.0491 µM | – | – | – | 0.0295 µM
6 | UACAUGAGGAUCACCCAUGUUUUGUCGUGUAUGGUAUUUAUCUAGGAUAUCAAUGUAUUUAUUUAUGAGAAGGAGAAUAUUAAU [JMF's solution 12] (Eterna round: R96, puzzle: Exclusion NG 3) | – | – | – | – | – | 0.0296 µM
7 | AAAGAGCGAGGAUAUACGUAUCGGUGCGGCCAGCCGAUGUGACAUGAGGAUCACCCAUGUAGAAGGCGCAGAAA [Excls2-IX] (puzzle: Exclusion 2) | – | – | – | 0.0234 µM | – | –
8 | AGAGAAUAGGUAGGAUAUCUUAAUAGAAAGAAUAGAGAAGGACCACAUGAGGAUCACCCAUGUGAUGUCUUGAGACUACAUGGU [Prohibition 32 - Jieux - Exclusion NG 1] (Eterna round: R96, puzzle: Exclusion NG 1) | – | – | – | – | – | 0.0133 µM
9 | GGAAGAAAGCGAGGAUAUCGAUAAGAAGAAGAAGAUAAGGUGACAUGAGGAUCACCCAUGUAAUACGAGAAGGCGCGACCUGCG [i'd better go back to my homework] (Eterna round: R96, puzzle: Exclusion NG 2) | 0.215 µM | 0.197 µM | – | – | – | 0.147 µM
10 | GAUCAUGCAGGAUAUACAGUUUCCAUGAAAACAUGGAACUCACAUGAGGAUCACCCAUGUAGAAGGGCAUGAUC [Omei Ex2 A26] (Eterna round: R97, puzzle: Exclusion 2) | 0.0259 µM | 0.0162 µM | – | – | – | –
11 | GUACUGACAGGAUAUACAUGAGGAUCACCCAUGUGCCUUAGCGCUACAAAAGUAGCGUGUAGAAGGGUCUGUAC [Omei Ex3 Model Bachelor's Dilema v15] (Eterna round: R97, puzzle: Exclusion 3) | 0.0368 µM | 0.0154 µM | – | – | – | –
12 | GGGAUGUGAGGAUAUCGAGGUGCAAAGCACCUAAAAGAAAACGAGAAGGCACAUGAGGAUCACCCAUGUAAUAC [Xeinle] (puzzle: Exclusion 4) | – | – | 0.105 µM | 0.026 µM | 0.026 µM | –
13 | UAUAUGUCAGGAUAUUAGUAGUAAAUAAAUAAAAUUAUUACUGAGAAGGGACAUGAGGAUCACCCAUGUACCUU [Salish 062 v32] (Eterna round: R97, puzzle: Exclusion 4) | 0.0161 µM | 0.0155 µM | – | – | – | –
14 | GUGUAGACAGGAUAUGCUUUGAGCGUAUGAGAGUAGGCUCGACAUGAGGAUCACCCAUGUAGAAGGGUCUACAC [LRO-Excl2-03] (puzzle: Exclusion 2) | – | – | – | 0.0101 µM | – | –
15 | GCAAGCUUAAUCACUAUGAACAUGAGGAUCACCCAUGUAUAAGGUAUUACUUUUGGGCCCUUUAUUACUCGUCUUAU [JR_STOV1_Sub031] (Eterna round: R97, puzzle: Sensor, turn-off variant 1) | 0.0519 µM | 0.0544 µM | – | – | – | –
16 | UACCUGAGGCAAAGCUUUAGGCUUACAUGAGGAUCACCCAUGUAGGAUAUGGUAGGCAAAGCUUACCAGAAGGACAUGGAAAUU [Mat - Exclusion NG 3 - Mod of JL - D23] (Eterna round: R96, puzzle: Exclusion NG 3) | 0.398 µM | 0.0868 µM | – | – | – | 0.0681 µM
17 | UUAAUUCGGAUUCUUGAAAUACAUGAGGAUCACCCAUGUUCACAGGAUAUUGAUUAAGUUAGUAACAAGAAGGGUGUAACAUAA [JR_ExcNG3_Sub035] (Eterna round: R96, puzzle: Exclusion NG 3) | 0.0578 µM | 0.0229 µM | – | – | – | 0.0176 µM
18 | UUUAUAAUUUCAAUCUUCGCCAGCAAACUAACACUGGCCACAUGAGGAUCACCCAUGUUUUUUGUUCGUUUUAUUCU [Cesoorso] (puzzle: Sensor v3, turn-off variant 2) | – | – | 0.0216 µM | 0.0629 µM | 0.0233 µM | –

Row | Sequence | apparent KD of MS2 coat protein (input ligand: FMN 200 uM) | apparent KD of MS2 coat protein (input ligand: none) | apparent KD of MS2 coat protein [1] | apparent KD of MS2 coat protein [2] | apparent KD of MS2 coat protein [3] | apparent KD of MS2 coat protein [4]
19 | UAUGUGUGAGGAUAUGGUAAAGAUAAGAUGAUGAAAGAACUCCAGAAGGCACAUGAGGAUCACCCAUGUAGAUG [JL-ex4-2.10 Jieux mod] (puzzle: Exclusion 4) | – | – | 0.0538 µM | 0.0372 µM | 0.0322 µM | –
20 | GCAGCAUAGAUAACAGUCUGAUACAUGAGGAUCACCCAUGUGCAGGAUAUGGUCUGGAUUACAGGCCAGAAGGGUACAAGCUGC [Eli exng3 - 015] (Eterna round: R96, puzzle: Exclusion NG 3) | 0.0104 µM | 0.0134 µM | – | – | – | 0.00784 µM
21 | GGUUCGAGAGUAAGGAUAUCGGUCUGCGCGAGUGACGAGAAGGUACAUGAGGAUCACCCAUGUCGAGGGAUCAC [Eternabot (L2) Solution 23] (Eterna round: R97, puzzle: Brourd's mod of Exclusion 4) | 0.0358 µM | 0.0349 µM | – | – | – | –
22 | CCGUGAGGUAAUAAUCAGUACAUGAGGAUCACCCAUGUCAAGAAGUUGCUCGUCGGUCGGAAAUACGGACGACCCAU [Eternabot (Original) Solution 50] (Eterna round: R97, puzzle: Sensor, turn-off variant 1) | 0.0191 µM | 0.0179 µM | – | – | – | –
23 | AAAUGUUCGGAGGAUAUAGAACGAUUGUCCGAGCUAGAAGGCCGAACAUGAGGAUCACCCAUGUGUACCUGAAA [Atmare] (puzzle: Exclusion 6) | – | – | 0.256 µM | 0.0388 µM | 0.0412 µM | –
24 | ACUUAUAGAGGAUAUACAGAUUAUUACAUGAGGAUCACCCAUGUUCUUCAAUGUAUAUAUGUAGAAGGCUAAGGAU [Mat - Exclusion 5 - JL Mod - D8] (Eterna round: R97, puzzle: Exclusion 5) | 0.192 µM | 0.0759 µM | – | – | – | –
25 | ACGGUCAUAGGAUAUACUGGGACAGCGCUAAGGCGCCCUUGACAUGAGGAUCACCCAUGUAGAAGGAUGUCCGA [EX2 C.1] (Eterna round: R97, puzzle: Exclusion 2) | 0.152 µM | 0.0226 µM | – | – | – | –
26 | UAUACCCGAGGAUAUACAUGAGGAUCACCCAUGUAGUGAAAGCUCUAAGAGCGCUCAGGUAGAAGGCGGAUUAA [EX3 A.9] (Eterna round: R97, puzzle: Exclusion 3) | 0.0249 µM | 0.0188 µM | – | – | – | –
27 | GGUUGACAUGAGGAUCACCCAUGUGAGGAUAUGCGAGAGAAAAAAGUGAGGAAGUUAAGCAGAAGGCGCUGUCG [salish99-ex1_r3_005] (puzzle: Exclusion 1) | – | – | 0.0895 µM | 0.078 µM | 0.307 µM | –
28 | ACACAGAUAGGAUAUCGGACUAUGGACAUGAGGAUCACCCAUGUGCGUCCAAUGUCCGACCGAGAAGGAUCAACAG [Teesvete] (puzzle: Exclusion 5) | – | – | 0.146 µM | 0.0518 µM | 0.077 µM | –
29 | UAGGUACAUGAGGAUCACCCAUGUGAGGAUAUAGAUGAAGAUUGCGAGAGGGAGAGGACUAGAAGGCACAGUGG [JR_Exclu1_Sub036] (puzzle: Exclusion 1) | – | – | – | 0.0309 µM | – | –
30 | CUUGUUUAUGUAGGAUAUGCCUGGCGUGCCUUUGCAGAAGGACAUGAGGAUCACCCAUGUAGUAUGAGGCUUACCCUUGUCGCC [salish99_ExNG1_r04_120] (Eterna round: R96, puzzle: Exclusion NG 1) | – | – | – | – | – | 0.0199 µM
31 | GUUGUGUGAGGAUAUGCCUGGCCGUGAGGCCGGAUUGGGUGGCAGAAGGUACAUGAGGAUCACCCAUGUACGGG [salish99_ex4_4_007] (Eterna round: R97, puzzle: Exclusion 4) | 0.0454 µM | 0.0309 µM | – | – | – | –
32 | GGUACUAUCACCUGAGUGGUAGUGCAAUAAGCUUGUGAUACAUGAGGAUCACCCAUGUCCUCAUUUGCUCGUCUUAU [JL-sv3-2.26 JL mod] (puzzle: Sensor v3, turn-off variant 2) | – | – | 0.533 µM | 0.516 µM | 0.839 µM | –
33 | GGAGAGUCAGGAUAUCGAAGGUAGUGGAGAGGAGUGUGGUACGAGAAGGGACAUGAGGAUCACCCAUGUAGGUG [JR_Exclusion4)Sub010] (puzzle: Exclusion 4) | – | – | 0.306 µM | 0.423 µM | 0.478 µM | –
34 | UUUGUGUCAGGAUAUGAGUAGUAGAACAAUAGUACUACUACUCAGAAGGGACAUGAGGAUCACCCAUGUUCCUC [Fiskers Ex 4 Super stable 44 mod 21] (puzzle: Exclusion 4) | – | – | – | 0.019 µM | – | –
35 | AACUAGUGAGGAUAUACAUGAGGAUCACCCAUGUACGUCGUGGGUAGAAAACAAGUCAGUAGAAGGUGCUAGAC [Ininor] (puzzle: Exclusion 3) | – | – | – | 0.174 µM | – | –
